Laboratory results reported in patent US10047131B2, “Peptides and combination of peptides for use in immunotherapy against ovarian cancer and other cancers” (immatics biotechnologies GmbH, priority 2015, dated 2018).

These substances were tested against HLA-A*02:01 (Homo sapiens, UniProt P04439, D140Y/D185E/D98H/E176V/E277Q/G131W/G231S/I119V/I121R/I166T/I218V/L300P/L318F/N151K/N90K/P208A/P217A/Q86G/Q94H/R138H/R169H/T345S) (assay: MHC binding assay (UV-ligand exchange, ELISA of exchange yield)). Details: binding to HLA-A*02:01, UV-ligand exchange.
Text: Candidate peptides for T cell based therapies according to the present invention were further tested for their MHC binding capacity (affinity). The individual peptide-MHC complexes were produced by UV-ligand exchange, where a UV-sensitive peptide is cleaved upon UV-irradiation, and exchanged with the peptide of interest as analyzed. Only peptide candidates that can effectively bind and stabilize the peptide-receptive MHC molecules prevent dissociation of the MHC complexes. To determine the yield of the exchange reaction, an ELISA was performed based on the detection of the light chain (p2m) of stabilized MHC complexes. The assay was performed as generally described in Rodenko et al. (Rodenko et al., 2006).
96 well MAXISorp plates (NUNC) were coated over night with 2 μg/ml streptavidin in PBS at room temperature, washed 4× and blocked for 1 h at 37° C. in 2% BSA containing blocking buffer. […] Peptide-MHC monomers of the UV-exchange reaction were diluted 100 fold in blocking buffer. Samples were incubated for 1h at 37° C., washed four times, incubated with 2 μg/ml HRP conjugated anti-β2m for 1h at 37° C., washed again and detected with TMB solution that is stopped with […]. Absorption was measured at 450 nm. Candidate peptides that show a high exchange yield (preferably higher than 50%, most preferred higher than 75%) are generally preferred for a generation and production of antibodies or fragments thereof, and/or T cell receptors or fragments thereof, as they show sufficient avidity to the MHC molecules and prevent dissociation of the MHC complexes.

Substance | Peptide exchange (MHC class I binding score, peptide exchange yield)
1 (SLMEPPAVLLL; listed as Homo sapiens) [compound 1] | “+++” (≥50 = +++)
2 (SLLEADPFL; listed as Homo sapiens) [compound 2] | “+++” (≥50 = +++)
3 (SLASKLTTL; listed as Homo sapiens) [compound 3] | “++++” (≥75% = ++++)
4 (GIMEHITKI; listed as Homo sapiens) [compound 4] | “++++” (≥75% = ++++)
5 (HLTEVYPEL; listed as Homo sapiens) [compound 5] | “+++” (≥50 = +++)
6 (VLVSDGVHSV; listed as Homo sapiens) [compound 6] | “+++” (≥50 = +++)
7 (SLVGLLLYL; listed as Homo sapiens) [compound 7] | “++++” (≥75% = ++++)
8 (FTLGNVVGMYL; listed as Homo sapiens) [compound 8] | “++++” (≥75% = ++++)
9 (GAAKDLPGV; listed as Homo sapiens) [compound 9] | “++” (≥20% = ++)
10 (FLATFPLAAV; listed as Homo sapiens) [compound 10] | “++++” (≥75% = ++++)
11 (KIFEMLEGV; listed as Homo sapiens) [compound 11] | “+++” (≥50 = +++)
12 (SLWPDPMEV; listed as Homo sapiens) [compound 12] | “+++” (≥50 = +++)
13 (YLMDESLNL; listed as Homo sapiens) [compound 13] | “+++” (≥50 = +++)
14 (AAYGGLNEKSFV; listed as Homo sapiens) [compound 14] | “+++” (≥50 = +++)
15 (VLLTFKIFL; listed as Homo sapiens) [compound 15] | “++” (≥20% = ++)
16 (VLFQGQASL; listed as Homo sapiens) [compound 16] | “+++” (≥50 = +++)
17 (GLLPGDRLVSV; listed as Homo sapiens) [compound 17] | “+++” (≥50 = +++)
18 (YLVAKLVEV; listed as Homo sapiens) [compound 18] | “++” (≥20% = ++)
19 (FMVDNEAIYDI; listed as Homo sapiens) [compound 19] | “++++” (≥75% = ++++)
20 (RMIEYFIDV; listed as Homo sapiens) [compound 20] | “+++” (≥50 = +++)

Substance | Peptide exchange (MHC class I binding score, peptide exchange yield)
21 (VLDELDMEL; listed as Homo sapiens) [compound 21] | “++” (≥20% = ++)
22 (IMEENPGIFAV; listed as Homo sapiens) [compound 22] | “+++” (≥50 = +++)
23 (VLLDDIFAQL; listed as Homo sapiens) [compound 23] | “+++” (≥50 = +++)
24 (SLSDGLEEV; listed as Homo sapiens) [compound 24] | “++” (≥20% = ++)
25 (FLPDEPYIKV; listed as Homo sapiens) [compound 25] | “+++” (≥50 = +++)
26 (ALLELAEEL; listed as Homo sapiens) [compound 26] | “+++” (≥50 = +++)
27 (ILADIVISA; listed as Homo sapiens) [compound 27] | “+++” (≥50 = +++)
28 (QLLDETSAITL; listed as Homo sapiens) [compound 28] | “+++” (≥50 = +++)
29 (KMLGIPISNILMV; listed as Homo sapiens) [compound 29] | “+++” (≥50 = +++)
30 (LILDWVPYI; listed as Homo sapiens) [compound 30] | “+++” (≥50 = +++)
31 (YLAPELFVNV; listed as Homo sapiens) [compound 31] | “++” (≥20% = ++)
32 (KLDDLTQDLTV; listed as Homo sapiens) [compound 32] | “++” (≥20% = ++)
33 (VLLSLLEKV; listed as Homo sapiens) [compound 33] | “++” (≥20% = ++)
34 (ILVEADSLWVV; listed as Homo sapiens) [compound 34] | “+++” (≥50 = +++)
35 (KINDTIYEV; listed as Homo sapiens) [compound 35] | “+++” (≥50 = +++)
36 (YVLEDLEVTV; listed as Homo sapiens) [compound 36] | “++” (≥20% = ++)
38 (FLLEDDIHVS; listed as Homo sapiens) [compound 38] | “+++” (≥50 = +++)
39 (SVAPNLPAV; listed as Homo sapiens) [compound 39] | “+++” (≥50 = +++)
40 (TLLVKVFSV; listed as Homo sapiens) [compound 40] | “+++” (≥50 = +++)

Further lines, results first:

Peptide exchange (MHC class I binding score, peptide exchange yield) | Substance
“+++” (≥50 = +++) | 41 (SLMPHIPGL; listed as Homo sapiens) [compound 41]
“+++” (≥50 = +++) | 42 (VLLQKIVSA; listed as Homo sapiens) [compound 42]
“++” (≥20% = ++) | 43 (VLSSLEINI; listed as Homo sapiens) [compound 43]
“++” (≥20% = ++) | 44 (ILDPISSGFLL; listed as Homo sapiens) [compound 44]
“+++” (≥50 = +++) | 45 (SLWQDIPDV; listed as Homo sapiens) [compound 45]
“+++” (≥50 = +++) | 46 (ILTEENIHL; listed as Homo sapiens) [compound 46]
“++” (≥20% = ++) | 47 (ILLSVPLLVV; listed as Homo sapiens) [compound 47]
“+++” (≥50 = +++) | 48 (ALAELYEDEV; listed as Homo sapiens) [compound 48]
“+++” (≥50 = +++) | 49 (YLPAVFEEV; listed as Homo sapiens) [compound 49]
“+++” (≥50 = +++) | 50 (SLSELEALM; listed as Homo sapiens) [compound 50]
“++++” (≥75% = ++++) | 51 (LLPDLEFYV; listed as Homo sapiens) [compound 51]
“++++” (≥75% = ++++) | 52 (FLLAHGLGFLL; listed as Homo sapiens) [compound 52]
“++++” (≥75% = ++++) | 53 (KMIETDILQKV; listed as Homo sapiens) [compound 53]
“+++” (≥50 = +++) | 54 (SLLEQGKEPWMV; listed as Homo sapiens) [compound 54]
“++++” (≥75% = ++++) | 55 (SLLDLETLSL; listed as Homo sapiens) [compound 55]
“++++” (≥75% = ++++) | 56 (KLYEGIPVLL; listed as Homo sapiens) [compound 56]
“+++” (≥50 = +++) | 57 (TLAELQPPVQL; listed as Homo sapiens) [compound 57]
“+++” (≥50 = +++) | 59 (IMEDIILTL; listed as Homo sapiens) [compound 59]
“++++” (≥75% = ++++) | 60 (SLTIDGIYYV; listed as Homo sapiens) [compound 60]
“++++” (≥75% = ++++) | 61 (FLQGYQLHL; listed as Homo sapiens) [compound 61]
“++++” (≥75% = ++++) | 62 (VLLDVSAGQLLM; listed as Homo sapiens) [compound 62]
“++” (≥20% = ++) | 63 (YLLPSGGSVTL; listed as Homo sapiens) [compound 63]
“++” (≥20% = ++) | 64 (YAAPGGLIGV; listed as Homo sapiens) [compound 64]
“+++” (≥50 = +++) | 66 (FLDENIGGVAV; listed as Homo sapiens) [compound 66]
